According to patent US20220177587A1, “METHODS AND USES OF VARIANT CD80 FUSION PROTEINS AND RELATED CONSTRUCTS” (Alpine Immune Sciences, Inc., priority 2018, published 2022):
Numbering of substitutions follows the chain as printed. Numbers in names are those of the source.

B1: variant CD80 IgV-Fc Q33L/E35D/M47I (Fc fusion)
chain: VIHVTKEVKEVATLSCGHNVSVEELAQTRIYWLKDKKMVLTMMSGDINIWPEYKNRTIFDITNNLSIVILALRPSDEGTYECVVLKYEKDAFKREHLAEVTLSVKAD
B2: variant CD80 IgV-Fc H18Y/E35D/M47L (Fc fusion)
chain: B1 chain with H18Y, L33Q, I47L
B3: variant CD80 IgV-Fc Q33L/E35D/M43V/M47I/A71G (Fc fusion)
chain: B1 chain with M43V, A71G
B4: variant CD80 IgV-Fc E7D/E35D/M47I/L97Q (Fc fusion)
chain: B1 chain with E7D, L33Q, L97Q
B5: variant CD80 IgV-Fc E35D/D46E/M47V/L97Q (Fc fusion)
chain: B1 chain with L33Q, D46E, I47V, L97Q
B6: variant CD80 IgV-Fc H18Y/E35D/V68M/L97Q (Fc fusion)
chain: B1 chain with H18Y, L33Q, I47M, V68M, L97Q
B7: variant CD80 IgV-Fc H18Y/Q33L/E35D/M47I (Fc fusion)
chain: B1 chain with H18Y
B8: variant CD80 IgV-Fc Q33L/E35D/M47L/A71G/F92S (Fc fusion)
chain: B1 chain with I47L, A71G, F92S
B9: variant CD80 IgV-Fc V22A/R29H/E35D/D46E/M47I (Fc fusion)
chain: B1 chain with V22A, R29H, L33Q, D46E
B10: variant CD80 IgV-Fc A26E/E35D/M43T/M47L/L85Q/R94Q (Fc fusion)
chain: B1 chain with A26E, L33Q, M43T, I47L, L85Q, R94Q
B11: variant CD80 IgV-Fc H18L/V22A/E35D/M47L/N48T/L85Q (Fc fusion)
chain: B1 chain with H18L, V22A, L33Q, I47L, N48T, L85Q
B12: variant CD80 IgV-Fc E35D/M47V/A71G/L85M/L97Q (Fc fusion)
chain: B1 chain with L33Q, I47V, A71G, L85M, L97Q
B13: variant CD80 IgV-Fc Q33L/E35D/M47I/T62N/L85Q (Fc fusion)
chain: B1 chain with T62N, L85Q
B14: variant CD80 IgV-Fc Q33L/E35D/T41S/M47V (Fc fusion)
chain: B1 chain with T41S, I47V
B15: variant CD80 IgV-Fc Q33L/E35D/M47V/L85Q (Fc fusion)
chain: B1 chain with I47V, L85Q
B16: variant CD80 IgV-Fc E35D/M47I/E77A/L85Q/R94W (Fc fusion)
chain: B1 chain with L33Q, E77A, L85Q, R94W
B17: variant CD80 IgV-Fc H18Y/V20A/Q33L/E35D/M47V/Y53F (Fc fusion)
chain: B1 chain with H18Y, V20A, I47V, Y53F
B18: variant CD80 IgV-Fc H18Y/Y31H/E35D/M47V/A71G/L85Q (Fc fusion)
chain: B1 chain with H18Y, Y31H, L33Q, I47V, A71G, L85Q
B19: variant CD80 IgV-Fc Q33L/E35D/M47L/V68M/L85Q/E88D (Fc fusion)
chain: B1 chain with I47L, V68M, L85Q, E88D
B20: variant CD80 IgV-Fc Q33L/E35D/N48K/L85Q/L97Q (Fc fusion)
chain: B1 chain with I47M, N48K, L85Q, L97Q
B21: variant CD80 IgV-Fc Q33K/E35D/D46V/L85Q (Fc fusion)
chain: B1 chain with L33K, D46V, I47M, L85Q
B22: variant CD80 IgV-Fc Q33L/E35D/M47I/L85Q (Fc fusion)
chain: B1 chain with L85Q
B23: variant CD80 IgV-Fc Q27H/Q33L/E35D/M47V/N55D/L85Q/K89N (Fc fusion)
chain: B1 chain with Q27H, I47V, N55D, L85Q, K89N
B24: variant CD80 IgV-Fc Q33L/E35D/M43I/L85Q/R94W (Fc fusion)
chain: B1 chain with M43I, I47M, L85Q, R94W
B25: variant CD80 IgV-Fc V22A/E23D/Q33L/E35D/M47V (Fc fusion)
chain: B1 chain with V22A, E23D, I47V
B26: variant CD80 IgV-Fc Q33L/E35D/T41S/M43I (Fc fusion)
chain: B1 chain with T41S, M43I, I47M
B27: variant CD80 IgV-Fc Y31S/E35D/M47L/T79L/E88G (Fc fusion)
chain: B1 chain with Y31S, L33Q, I47L, T79L, E88G

The binders below were run against human PD-L1 (human) (UniProt Q9NZQ7) (assay: flow cytometry, CHO cells expressing huPD-L1; MFI ratio to WT CD80 ECD-Fc (R&D)).
Sequence of human PD-L1 (human) (Q9NZQ7 19-290): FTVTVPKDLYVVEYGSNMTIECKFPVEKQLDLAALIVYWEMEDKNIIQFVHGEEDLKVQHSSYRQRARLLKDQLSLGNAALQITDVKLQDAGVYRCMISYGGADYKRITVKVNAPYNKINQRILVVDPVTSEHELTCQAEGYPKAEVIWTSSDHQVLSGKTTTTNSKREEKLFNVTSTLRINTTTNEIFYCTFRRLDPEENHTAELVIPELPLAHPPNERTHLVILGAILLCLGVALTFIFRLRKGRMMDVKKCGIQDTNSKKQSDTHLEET

| Fold change to WT [fold] | Binder |
| --- | --- |
| 4.7 | B1 |
| 5.56 | B2 |
| 9.82 | B3 |
| 1.84 | B4 |
| 2.45 | B5 |
| 15.3 | B6 |
| 6.02 | B7 |
| 3.53 | B8 |
| 3.2 | B9 |
| 8.57 | B10 |
| 12.3 | B11 |
| 7.77 | B12 |
| 9.14 | B13 |
| 5.52 | B14 |
| 5.97 | B15 |
| 8.12 | B16 |
| 15.2 | B17 |
| 9.61 | B18 |
| 15.8 | B19 |
| 5.69 | B20 |
| 3.36 | B21 |
| 8.05 | B22 |
| 1.86 | B23 |
| 3.65 | B24 |
| 9.51 | B25 |
| 5.66 | B26 |
| 4.9 | B27 |

These binders were tested against human PD-L1 (human) (UniProt Q9NZQ7) (assay: flow cytometry, CHO cells expressing huPD-L1).

| MFI at 33.3 nM [MFI] | Binder |
| --- | --- |
| 37400 | B1 |
| 44200 | B2 |
| 78000 | B3 |
| 14600 | B4 |
| 19500 | B5 |
| 122000 | B6 |
| 47800 | B7 |
| 28000 | B8 |
| 25400 | B9 |
| 68100 | B10 |
| 98100 | B11 |
| 61700 | B12 |
| 72600 | B13 |
| 43800 | B14 |
| 47400 | B15 |
| 64500 | B16 |
| 121000 | B17 |
| 76400 | B18 |
| 126000 | B19 |
| 45200 | B20 |
| 26700 | B21 |
| 63900 | B22 |
| 14800 | B23 |
| 29000 | B24 |
| 75500 | B25 |
| 44900 | B26 |
| 38900 | B27 |

What follows are binders tested against human PD-L1 (human) (UniProt Q9NZQ7) (assay: flow cytometry; binding to PD-L1 cells against binding of the same variant to CD28 cells).

| Ratio of PDL1:CD28 | Binder |
| --- | --- |
| 132 | B1 |
| 9 | B2 |
| 275 | B3 |
| 54 | B4 |
| 52 | B5 |
| 407 | B6 |
| 162 | B7 |
| 77 | B8 |
| 79 | B9 |
| 262 | B10 |
| 226 | B11 |
| 182 | B12 |
| 256 | B13 |
| 153 | B14 |
| 177 | B15 |
| 238 | B16 |
| 463 | B17 |
| 285 | B18 |
| 476 | B19 |
| 162 | B20 |
| 104 | B21 |
| 222 | B22 |
| 55 | B23 |
| 107 | B24 |
| 275 | B25 |
| 104 | B26 |
| 140 | B27 |

The binders below were run against human CTLA-4 (human) (UniProt P16410) (assay: flow cytometry, CHO cells expressing huCTLA4; MFI ratio to WT CD80 ECD-Fc (R&D)).
Sequence of human CTLA-4 (human) (P16410 36-223): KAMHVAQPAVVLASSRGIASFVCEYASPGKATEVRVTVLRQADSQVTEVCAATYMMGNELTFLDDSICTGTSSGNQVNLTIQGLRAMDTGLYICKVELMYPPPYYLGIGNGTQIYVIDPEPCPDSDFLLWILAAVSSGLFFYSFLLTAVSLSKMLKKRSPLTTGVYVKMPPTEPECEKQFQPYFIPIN

| Fold change to WT CD80 [fold] | Binder |
| --- | --- |
| 0.09 | B1 |
| 1.59 | B2 |
| 0.08 | B3 |
| 1.52 | B4 |
| 1.71 | B5 |
| 0.97 | B6 |
| 0.03 | B7 |
| 0.01 | B8 |
| 0.43 | B9 |
| 1.56 | B10 |
| 2.09 | B11 |
| 1.34 | B12 |
| 0.01 | B13 |
| 0.08 | B14 |
| 0.42 | B15 |
| 1.38 | B16 |
| 0.02 | B17 |
| 0.02 | B18 |
| 0.02 | B19 |
| 0.01 | B20 |
| 0.05 | B21 |
| 0.11 | B22 |
| 0.31 | B23 |
| 0.01 | B24 |
| 0.02 | B25 |
| 0.04 | B26 |
| 0.01 | B27 |

Each binder was assayed against CD28 (human) (UniProt P10747) (assay: flow cytometry, Jurkat/IL2 reporter cells (endogenous CD28)).

| MFI at 33.3 nM [MFI] | Binder |
| --- | --- |
| 282 | B1 |
| 5070 | B2 |
| 284 | B3 |
| 273 | B4 |
| 371 | B5 |
| 299 | B6 |
| 295 | B7 |
| 366 | B8 |
| 323 | B9 |
| 260 | B10 |
| 434 | B11 |
| 339 | B12 |
| 284 | B13 |
| 287 | B14 |
| 268 | B15 |
| 272 | B16 |
| 260 | B17 |
| 268 | B18 |
| 264 | B19 |
| 279 | B20 |
| 257 | B21 |
| 287 | B22 |
| 269 | B23 |
| 272 | B24 |
| 274 | B25 |
| 433 | B26 |
| 278 | B27 |

These binders were tested against CD28 (human) (UniProt P10747) (assay: flow cytometry, Jurkat/IL2 reporter cells (endogenous CD28); MFI ratio to WT CD80 ECD-Fc (R&D)).

| Fold change to WT [fold] | Binder |
| --- | --- |
| 0.04 | B1 |
| 0.66 | B2 |
| 0.04 | B3 |
| 0.04 | B4 |
| 0.05 | B5 |
| 0.04 | B6 |
| 0.04 | B7 |
| 0.05 | B8 |
| 0.04 | B9 |
| 0.03 | B10 |
| 0.06 | B11 |
| 0.04 | B12 |
| 0.04 | B13 |
| 0.04 | B14 |
| 0.04 | B15 |
| 0.04 | B16 |
| 0.03 | B17 |
| 0.04 | B18 |
| 0.03 | B19 |
| 0.04 | B20 |
| 0.03 | B21 |
| 0.04 | B22 |
| 0.04 | B23 |
| 0.04 | B24 |
| 0.04 | B25 |
| 0.06 | B26 |
| 0.04 | B27 |

What follows are binders tested against human CTLA-4 (human) (UniProt P16410) (assay: flow cytometry, CHO cells expressing huCTLA4).

| MFI at 33.3 nM [MFI] | Binder |
| --- | --- |
| 15900 | B1 |
| 284000 | B2 |
| 14000 | B3 |
| 271000 | B4 |
| 305000 | B5 |
| 173000 | B6 |
| 5540 | B7 |
| 2110 | B8 |
| 77400 | B9 |
| 278000 | B10 |
| 374000 | B11 |
| 239000 | B12 |
| 1660 | B13 |
| 14500 | B14 |
| 75400 | B15 |
| 247000 | B16 |
| 2880 | B17 |
| 3840 | B18 |
| 3530 | B19 |
| 1180 | B20 |
| 8510 | B21 |
| 20500 | B22 |
| 56100 | B23 |
| 1080 | B24 |
| 3640 | B25 |
| 6390 | B26 |
| 1100 | B27 |
